This is an account of results in patent US9957308B2, “Method for detecting bilirubin using a fluorescent protein” (RIKEN, priority 2013, dated 2018).

Series [1] concerns mammalian cell HEK293T. Briefly: Expression of recombinant UnaG protein in mammalian cells, fluorescence microscopy. The class given is cell-based. The conditions noted are these: fluorescence microscope. The source says: DNA to be inserted to an expression vector for mammalian cell was amplified by PCR using full-length cDNA of the UnaG gene of SEQ ID NO: 2 as template DNA, a sense primer (SEQ ID NO: 24), and an antisense primer (SEQ ID NO: 25). A FLAG-tag sequence (SEQ ID NO: 26) was inserted into the KpnI restriction enzyme site and the BamHI restriction enzyme site of expression vector pcDNA3 (Invitrogen) for mammalian cell, and the amplified DNA fragment was ligated to the BamHI restriction enzyme site and the EcoRI restriction enzyme site of the resulting pcDNA3-FLAG vector and transformed into Escherichia coli strain DH5α for cloning. The vector was extracted from Escherichia coli and was purified. The sequence was confirmed by DNA sequence analysis. Thus, a UnaG expression vector (pcDNA3-FLAG-UnaG) for mammalian cells was constructed. […]
After the expression of protein, the medium was removed from each dish, and the cells were rinsed with PBS. […] The purified FLAG-UnaG protein (holo form) was irradiated with a UV transilluminator for verifying whether fluorescence was present or not. […]
FIG. 1 includes diagrams showing expression of recombinant UnaG protein in Escherichia coli and mammalian cells. […] The diagram (c) includes a differential interference image and a fluorescence image by observation of mammalian cell HEK293T expressing recombinant UnaG protein under a fluorescence microscope. […]

Series [2] deals with T1, apo UnaG protein (Anguilla japonica, UniProt P0DM59).
T1 construct: GST (N, cleaved yes); made in house; host or cells: Escherichia coli BL21 (DE3)
Briefly: Reconstruction of apo UnaG protein using bilirubin or bilirubin analog, fluorescence intensity. The class given is binding, Japanese eel (Anguilla japonica). As to conditions: 0.5 μM apo UnaG, ligand 0.125-2.0 μM, 30 min room temperature, excitation 497 nm / emission 527 nm. The method, then: Bilirubin or a bilirubin analog, biliverdin (Toronto Research Chemicals), urobilin (MP Biomedicals), or ditaurobilirubin (Frontier Scientific), was diluted with PBS such that the final concentration was 0.125 μM, 0.25 μM, 0.5 μM, 1.0 μM, or 2.0 μM and was mixed with 0.5 μM apo UnaG protein. The mixture was left to stand at room temperature for 30 min. Subsequently, 200 μL of the mixture was added to each well of a 96 well microplate (Greiner Bio-One) and was subjected to measurement of the fluorescence intensity at a wavelength of 527 nm with excitation light having a wavelength of 497 nm using EnSpire multi-mode plate reader (PerkinElmer Co., Ltd.).

A short description of series [3]: Evaluation of aggregability of protein by dynamic light scattering particle diameter. The class given is physicochemical. As to conditions: wild-type 10 mg/mL, R82EK84E mutant 8.5 mg/mL. The method, then: Protein solutions (each 20 μL) of wild-type UnaG protein (10 mg/mL) and R82EK84E mutated UnaG protein (8.5 mg/mL) were each supplied to Microtrac particle size analyzer MT3000II (Nikkiso Co., Ltd.), and the particle diameters were measured by a dynamic light scattering. The aggregability was evaluated by plotting frequency against particle diameter.

B1: UnaG: fluorescent polypeptide including the amino acid sequence of SEQ ID NO: 1, originally isolated from Japanese eel; fluoresces in the presence of bilirubin (protein, listed as Anguilla japonica)
chain: MVEKFVGTWKIADSHNFGEYLKAIGAPKELSDGGDATTPTLYISQKDGDKMTVKIENGPPTFLDTQVKFKLGEEFDEFPSDRRKGVKSVVNLVGEKLVYVQKWDGKETTYVREIKDGKLVVTLTMGDVVAVRSYRRATE
With B1, the “fluorescence of expressed protein in cells” value in series [1] is given as “emitted fluorescence”. Moreover, the “fluorescence of UnaG on addition of ligand (specificity)” value in series [2] is recorded as “specific to bilirubin”. Moreover, in series [3], the “particle diameter distribution (peaks)” value is given as “two peaks of different particle diameter distribution ranges”.
